From patent US20210346432A1 (Memorial Sloan Kettering, published 2021)
No end group written: not given here. *: point of attachment. Biotin = O=C1N[C@H]2[C@H](CS[C@H]2CCCCC(=O)*)N1

T1: ET140-p39 (human)
T1 construct: also called peptide 39
T1 peptide: Biotin-SGSGYCNASVTNSVKGTNA

T2: ET140-p33 (human, cysteine pairing not given here)
T2 construct: also called peptide 33
T2 peptide: Biotin-SGSGPLTCQRYCNASVTNS

T3: ET140-p32 (human, cysteine pairing not given here)
T3 construct: also called peptide 32
T3 peptide: Biotin-SGSGPPLTCQRYCNASVTN

T4: ET140-p13 (human, cysteine pairing not given here)
T4 construct: also called peptide 13
T4 peptide: Biotin-SGSGFDSLLHACIPCQLRC

T5: ET140-p8 (human)
T5 construct: also called peptide 8
T5 peptide: Biotin-SGSGSQNEYFDSLLHACIP

T6: ET140-p24 (human, cysteine pairing not given here)
T6 construct: also called peptide 24
T6 peptide: Biotin-SGSGQLRCSSNTPPLTCQR

T7: ET140-p5 (human)
T7 construct: also called peptide 5
T7 peptide: Biotin-SGSGGQCSQNEYFDSLLHA

T8: ET140-p11 (human, cysteine pairing not given here)
T8 construct: also called peptide 11; ET140-pll
T8 peptide: Biotin-SGSGEYFDSLLHACIPCQL

T9: ET140-p36 (human, cysteine pairing not given here)
T9 construct: also called peptide 36
T9 peptide: Biotin-SGSGCQRYCNASVTNSVKG

T10: ET140-p10 (human, cysteine pairing not given here)
T10 construct: also called peptide 10
T10 peptide: Biotin-SGSGNEYFDSLLHACIPCQ

T11: ET140-p6 (human, cysteine pairing not given here)
T11 construct: also called peptide 6
T11 peptide: Biotin-SGSGQCSQNEYFDSLLHAC

T12: ET140-p18 (human, cysteine pairing not given here)
T12 construct: also called peptide 18
T12 peptide: Biotin-SGSGHACIPCQLRCSSNTP

T13: ET140-p16 (human, cysteine pairing not given here)
T13 construct: also called peptide 16
T13 peptide: Biotin-SGSGLLHACIPCQLRCSSN

T14: ET140-p22 (human, cysteine pairing not given here)
T14 construct: also called peptide 22
T14 peptide: Biotin-SGSGPCQLRCSSNTPPLTC

T15: ET140-p20 (human, cysteine pairing not given here)
T15 construct: also called peptide 20
T15 peptide: Biotin-SGSGCIPCQLRCSSNTPPL

T16: ET140-p12 (human, cysteine pairing not given here)
T16 construct: also called peptide 12
T16 peptide: Biotin-SGSGYFDSLLHACIPCQLR

T17: ET140-p2 (human)
T17 construct: also called peptide 2
T17 peptide: Biotin-SGSGQMAGQCSQNEYFDSL

T18: ET140-p4 (human)
T18 construct: also called peptide 4
T18 peptide: Biotin-SGSGAGQCSQNEYFDSLLH

T19: ET140-p23 (human, cysteine pairing not given here)
T19 construct: also called peptide 23
T19 peptide: Biotin-SGSGCQLRCSSNTPPLTCQ

T20: ET140-p31 (human, cysteine pairing not given here)
T20 construct: also called peptide 31
T20 peptide: Biotin-SGSGTPPLTCQRYCNASVT

T21: ET140-p21 (human, cysteine pairing not given here)
T21 construct: also called peptide 21
T21 peptide: Biotin-SGSGIPCQLRCSSNTPPLT

T22: ET140-p1 (human)
T22 construct: also called peptide 1; ET140-pl
T22 peptide: Biotin-SGSGLQMAGQCSQNEYFDS

T23: ET140-p15 (human, cysteine pairing not given here)
T23 construct: also called peptide 15
T23 peptide: Biotin-SGSGSLLHACIPCQLRCSS

T24: ET140-p29 (human, cysteine pairing not given here)
T24 construct: also called peptide 29
T24 peptide: Biotin-SGSGSNTPPLTCQRYCNAS

T25: ET140-p17 (human, cysteine pairing not given here)
T25 construct: also called peptide 17
T25 peptide: Biotin-SGSGLHACIPCQLRCSSNT

T26: ET140-p19 (human, cysteine pairing not given here)
T26 construct: also called peptide 19
T26 peptide: Biotin-SGSGACIPCQLRCSSNTPP

B1: ET140-174 mIgG1 (antibody, V domains shown)
VH: EVQLVQSGAEVKKPGESLKISCKGSGYSFTSYWIGWVRQMPGKGLEWMGIIYPGDSDTRYSPSFQGHVTISADKSISTAYLQWSSLKASDTAMYYCARYSGSFDNWGQGTLVTVSS
VL: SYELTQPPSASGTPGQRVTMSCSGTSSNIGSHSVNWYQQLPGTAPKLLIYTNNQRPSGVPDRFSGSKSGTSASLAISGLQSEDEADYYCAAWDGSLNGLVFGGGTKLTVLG
notes: also called ET140-24 mIgG1; ET140-24
B2: ET140-204 mIgG1 (antibody, V domains shown)
VH: EVQLVQSGAEMKKPGASLKLSCKASGYTFIDYYVYWMRQAPGQGLESMGWINPNSGGTNYAQKFQGRVTMTRDTSISTAYMELSRLRSDDTAMYYCARSQRDGYMDYWGQGTLVTVSS
VL: QSALTQPASVSASPGQSIAISCTGTSSDVGWYQQHPGKAPKLMIYEDSKRPSGVSNRFSGSKSGNTASLTISGLQAEDEADYYCSSNTRSSTLVFGGGTKLTVLG
notes: also called ET140-54 mIgG1; ET140-54
B3: ET140-153 mIgG1 (antibody, V domains shown)
VH: QVQLVQSGAEVKKPGSSVKVSCKASGGTFSSYAISWVRQAPGQGLEWMGRIIPILGIANYAQKFQGRVTITADKSTSTAYMELSSLRSEDTAVYYCARGGYYSHDMWSEDWGQGTLVTVSS
VL: LPVLTQPPSASGTPGQRVTISCSGRSSNIGSNSVNWYRQLPGAAPKLLIYSNNQRPPGVPVRFSGSKSGTSASLAISGLQSEDEATYYCATWDDNLNVHYVFGTGTKVTVLG
notes: also called ET140-3 mIgG1; ET140-3

Tests used:
Assay in all cases: peptide ELISA on streptavidin plate, antibody 1 ug/mL
[1] = target: T1, ET140-p39
Protocol: (§1) The peptides were coated onto Streptavidin plates at 2 ug/mL in PBST (PBS+0.05% Tween-20). After washing and blocking with 3% BSA. […] “mIgG1” used in all Examples represents that the variable region is fully human and the Fc part is mouse IgG1. Then HRP anti-mouse IgG detection antibody was added to each well. Finally, the color was developed using TMB substrate. A450 was recorded for data analysis.

[2] = target: T2, ET140-p33
Protocol: as §1

[3] = target: T3, ET140-p32
Protocol: as §1

[4] = target: T4, ET140-p13
Protocol: as §1

[5] = target: T5, ET140-p8
Protocol: as §1

[6] = target: T6, ET140-p24
Protocol: as §1

[7] = target: T7, ET140-p5
Protocol: as §1

[8] = target: T8, ET140-p11
Protocol: as §1

[9] = target: T9, ET140-p36
Protocol: as §1

[10] = target: T10, ET140-p10
Protocol: as §1

[11] = target: T11, ET140-p6
Protocol: as §1

[12] = target: T12, ET140-p18
Protocol: as §1

[13] = target: T13, ET140-p16
Protocol: as §1

[14] = target: T14, ET140-p22
Protocol: as §1

[15] = target: T15, ET140-p20
Protocol: as §1

[16] = target: T16, ET140-p12
Protocol: as §1

[17] = target: T17, ET140-p2
Protocol: as §1

[18] = target: T18, ET140-p4
Protocol: as §1

[19] = target: T19, ET140-p23
Protocol: as §1

[20] = target: T20, ET140-p31
Protocol: as §1

[21] = target: T21, ET140-p21
Protocol: as §1

[22] = target: T22, ET140-p1
Protocol: as §1

[23] = target: T23, ET140-p15
Protocol: as §1

[24] = target: T24, ET140-p29
Protocol: as §1

[25] = target: T25, ET140-p17
Protocol: as §1

[26] = target: T26, ET140-p19
Protocol: as §1

| Binder | A450 [1] | A450 [2] | A450 [3] | A450 [4] | A450 [5] | A450 [6] | A450 [7] | A450 [8] | A450 [9] | A450 [10] | A450 [11] | A450 [12] | A450 [13] | A450 [14] | A450 [15] | A450 [16] | A450 [17] | A450 [18] | A450 [19] | A450 [20] | further results |
| --- | --- | --- | --- | --- | --- | --- | --- | --- | --- | --- | --- | --- | --- | --- | --- | --- | --- | --- | --- | --- | --- |
| B1 | 0.071 | 0.083 | 0.092 | 0.143 | 0.083 | 0.357 | 0.073 | 0.094 | 0.084 | 0.115 | 0.105 | 0.099 | 0.231 | 0.098 | 0.083 | 0.137 | 0.079 | 0.081 | 0.109 | 0.085 | A450 [21]: 0.086; A450 [22]: 0.084; A450 [23]: 0.268; A450 [24]: 0.09; A450 [25]: 0.15; A450 [26]: 0.104 |
| B2 | 0.074 | 0.084 | 0.092 | 0.138 | 0.073 | 0.325 | 0.069 | 0.085 | 0.085 | 0.087 | 0.095 | 0.105 | 0.263 | 0.111 | 0.081 | 0.139 | 0.076 | 0.073 | 0.101 | 0.08 | A450 [21]: 0.077; A450 [22]: 0.069; A450 [23]: 0.276; A450 [24]: 0.083; A450 [25]: 0.146; A450 [26]: 0.099 |
| B3 | 0.072 | 0.116 | 0.099 | 1.03 | 0.178 | 0.382 | 0.08 | 1.07 | 0.089 | 0.758 | 0.127 | 0.097 | 0.266 | 0.131 | 0.087 | 2.08 | 0.076 | 0.094 | 0.113 | 0.107 | A450 [21]: 0.089; A450 [22]: 0.084; A450 [23]: 0.328; A450 [24]: 0.109; A450 [25]: 0.155; A450 [26]: 0.098 |
